In this experiment the target is PTH receptor (PTHR1) (human) (UniProt Q03431). Nature of the experiment: cell-based or functional assay.
UniProt Q03431, sequence (Q03431 27-593): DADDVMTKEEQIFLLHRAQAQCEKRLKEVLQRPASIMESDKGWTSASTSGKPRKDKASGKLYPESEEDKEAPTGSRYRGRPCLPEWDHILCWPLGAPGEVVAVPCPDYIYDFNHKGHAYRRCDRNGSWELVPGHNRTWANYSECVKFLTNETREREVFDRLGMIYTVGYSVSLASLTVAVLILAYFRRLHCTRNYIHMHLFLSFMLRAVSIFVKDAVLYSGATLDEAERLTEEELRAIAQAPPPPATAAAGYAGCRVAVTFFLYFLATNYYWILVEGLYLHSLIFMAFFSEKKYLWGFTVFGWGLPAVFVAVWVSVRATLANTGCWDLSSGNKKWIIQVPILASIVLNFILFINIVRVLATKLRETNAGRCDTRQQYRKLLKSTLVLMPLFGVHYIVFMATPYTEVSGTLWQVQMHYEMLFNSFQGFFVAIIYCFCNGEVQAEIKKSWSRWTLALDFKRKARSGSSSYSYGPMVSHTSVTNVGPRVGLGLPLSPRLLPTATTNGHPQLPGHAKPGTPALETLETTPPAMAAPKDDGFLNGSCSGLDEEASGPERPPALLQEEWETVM

Turning to PTH (ligand), the EC50 (cAMP, PTH1 cellular assay) turned out to be 1.4 nM and the Maximal response is 105%.

The values above are taken from patent publication US20260248925A1.
